Data on 91 sequences can be found in the supplement of paper PMC9112550, “Optimization of the antimicrobial peptide Bac7 by deep mutational scanning” (BMC Biology, 2022).

The series has as its system Escherichia coli TOP10. Kind of series: shrunken log2 fold change of peptide-encoding DNA abundance (4.5 h post-induction vs induction); higher = less antimicrobial activity (less host growth inhibition). The conditions noted are these: time post-induction: 4.5 h; library: site-saturation at positions 5, 18, 19, 20.
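Also: peptides expressed intracellularly from a pBAD plasmid library in pooled LB shake-flask culture, induced with 0.3% L-arabinose, DNA abundance read by NGS, three biological replicates, DESeq2 with apeglm shrinkage.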

In the case of RRIRHRPPRLPRPRPRPYKFPRP, the “shrunken log2 fold change” value was -0.0481.

Consider RRIRLRPPRLPRPRPRPAHMPRP, for which the “shrunken log2 fold change” value is -0.0737.

On to RRIRVRPPRLPRPRPRPYCEPRP, for which the “shrunken log2 fold change” value is -0.0433.

As for RRIRRRPPRLPRPRPRPDCSPRP, the “shrunken log2 fold change” value was -0.27.

With RRIRERPPRLPRPRPRPMQRPRP, the “shrunken log2 fold change” value is -0.00559.

In the case of RRIRKRPPRLPRPRPRPEQAPRP, the “shrunken log2 fold change” value came to 0.776.

As for RRIRGRPPRLPRPRPRPQDQPRP, the “shrunken log2 fold change” value amounted to 0.531.

Consider RRIRNRPPRLPRPRPRPMHEPRP, for which the “shrunken log2 fold change” value was found to be 0.0425.

RRIRERPPRLPRPRPRPFEMPRP: the “shrunken log2 fold change” value is -0.536.

RRIRSRPPRLPRPRPRPIDLPRP: the “shrunken log2 fold change” value is -0.546.

Take RRIRFRPPRLPRPRPRPCMLPRP: the “shrunken log2 fold change” value is -0.591.

For RRIRNRPPRLPRPRPRPVGLPRP, the “shrunken log2 fold change” value came to 0.0874.

As to RRIRNRPPRLPRPRPRPDILPRP, the “shrunken log2 fold change” value was -0.156.

On to RRIRCRPPRLPRPRPRPLVSPRP, for which the “shrunken log2 fold change” value is -0.245.

On to RRIRGRPPRLPRPRPRPWAHPRP, for which the “shrunken log2 fold change” value came out at 0.0122.

As for RRIRPRPPRLPRPRPRPLHNPRP, the “shrunken log2 fold change” value was -0.201.

As to RRIRRRPPRLPRPRPRPDEDPRP, the “shrunken log2 fold change” value was determined as 0.219.

As for RRIRQRPPRLPRPRPRPYPNPRP, the “shrunken log2 fold change” value was -0.0164.

Turning to RRIRKRPPRLPRPRPRPSAWPRP, the “shrunken log2 fold change” value was found to be 0.534.

On to RRIRGRPPRLPRPRPRPAHPPRP, for which the “shrunken log2 fold change” value is 0.754.

Turning to RRIRHRPPRLPRPRPRPTGLPRP, the “shrunken log2 fold change” value is -0.515.

As for RRIRKRPPRLPRPRPRPHGAPRP, the “shrunken log2 fold change” value turned out to be 0.594.

Turning to RRIRKRPPRLPRPRPRPRQKPRP, the “shrunken log2 fold change” value was -0.0264.

As to RRIRERPPRLPRPRPRPAHMPRP, the “shrunken log2 fold change” value was -0.291.

RRIRLRPPRLPRPRPRPYTHPRP: the “shrunken log2 fold change” value is -0.925.

For the sequence RRIRCRPPRLPRPRPRPSTGPRP, the “shrunken log2 fold change” value is -0.354.

For the sequence RRIRQRPPRLPRPRPRPTFDPRP, the “shrunken log2 fold change” value amounted to 0.168.

Turning to RRIRLRPPRLPRPRPRPLEQPRP, the “shrunken log2 fold change” value is 0.0155.

Take RRIRIRPPRLPRPRPRPEHVPRP: the “shrunken log2 fold change” value was -0.0143.

On to RRIRERPPRLPRPRPRPISMPRP, for which the “shrunken log2 fold change” value was 2.71.

As to RRIRYRPPRLPRPRPRPGKLPRP, the “shrunken log2 fold change” value is -0.0944.

For the sequence RRIRSRPPRLPRPRPRPIRVPRP, the “shrunken log2 fold change” value came to 0.047.

Turning to RRIRWRPPRLPRPRPRPSLSPRP, the “shrunken log2 fold change” value came out at 1.36.

For RRIRPRPPRLPRPRPRPCYEPRP, the “shrunken log2 fold change” value is -0.195.

For the sequence RRIRARPPRLPRPRPRPHGGPRP, the “shrunken log2 fold change” value was 0.301.

In the case of RRIRGRPPRLPRPRPRPIQIPRP, the “shrunken log2 fold change” value was -0.0799.

Consider RRIRDRPPRLPRPRPRPTREPRP, for which the “shrunken log2 fold change” value worked out at 1.46.

Consider RRIRARPPRLPRPRPRPMDGPRP, for which the “shrunken log2 fold change” value turned out to be 0.211.

For the sequence RRIRHRPPRLPRPRPRPFICPRP, the “shrunken log2 fold change” value turned out to be 0.00486.

Consider RRIRARPPRLPRPRPRPRSPPRP, for which the “shrunken log2 fold change” value turned out to be 0.871.

As for RRIRRRPPRLPRPRPRPFFKPRP, the “shrunken log2 fold change” value was -0.177.

On to RRIRCRPPRLPRPRPRPWVQPRP, for which the “shrunken log2 fold change” value is -0.391.

With RRIRTRPPRLPRPRPRPYSEPRP, the “shrunken log2 fold change” value is -0.212.

Regarding RRIRIRPPRLPRPRPRPAHLPRP, the “shrunken log2 fold change” value was 0.117.

Regarding RRIRERPPRLPRPRPRPNSKPRP, the “shrunken log2 fold change” value was -0.863.

Take RRIRHRPPRLPRPRPRPKAWPRP: the “shrunken log2 fold change” value was -0.00151.

For the sequence RRIRSRPPRLPRPRPRPDFMPRP, the “shrunken log2 fold change” value was -0.159.

In the case of RRIRIRPPRLPRPRPRPKQLPRP, the “shrunken log2 fold change” value is -0.0927.

Take RRIRGRPPRLPRPRPRPCLQPRP: the “shrunken log2 fold change” value came out at 0.264.

On to RRIRPRPPRLPRPRPRPSLAPRP, for which the “shrunken log2 fold change” value was 0.185.

Turning to RRIRGRPPRLPRPRPRPKNGPRP, the “shrunken log2 fold change” value came out at 0.0583.

As to RRIRPRPPRLPRPRPRPHTVPRP, the “shrunken log2 fold change” value was -0.214.

Turning to RRIRNRPPRLPRPRPRPEWSPRP, the “shrunken log2 fold change” value was determined as 0.406.

Take RRIRARPPRLPRPRPRPQICPRP: the “shrunken log2 fold change” value worked out at 0.176.

For the sequence RRIRVRPPRLPRPRPRPNGFPRP, the “shrunken log2 fold change” value was -0.0486.

Regarding RRIRYRPPRLPRPRPRPRWKPRP, the “shrunken log2 fold change” value was -0.295.

Take RRIRERPPRLPRPRPRPLCLPRP: the “shrunken log2 fold change” value is -0.679.

Take RRIRTRPPRLPRPRPRPNGHPRP: the “shrunken log2 fold change” value is 0.0943.

With RRIRWRPPRLPRPRPRPQQTPRP, the “shrunken log2 fold change” value is 0.103.

Regarding RRIRSRPPRLPRPRPRPCDIPRP, the “shrunken log2 fold change” value was -0.0321.

As to RRIRDRPPRLPRPRPRPNTTPRP, the “shrunken log2 fold change” value is -0.0542.

In the case of RRIRRRPPRLPRPRPRPVPPPRP, the “shrunken log2 fold change” value is 0.77.

Turning to RRIRMRPPRLPRPRPRPAWDPRP, the “shrunken log2 fold change” value turned out to be 0.869.

As to RRIRERPPRLPRPRPRPISGPRP, the “shrunken log2 fold change” value is -0.564.

On to RRIRARPPRLPRPRPRPPHDPRP, for which the “shrunken log2 fold change” value was 1.02.

Take RRIRTRPPRLPRPRPRPQMIPRP: the “shrunken log2 fold change” value was -0.346.

As to RRIRARPPRLPRPRPRPVMQPRP, the “shrunken log2 fold change” value came out at 0.305.

Regarding RRIRNRPPRLPRPRPRPSNLPRP, the “shrunken log2 fold change” value was -0.457.

Consider RRIRQRPPRLPRPRPRPWFTPRP, for which the “shrunken log2 fold change” value was -0.356.

As for RRIRARPPRLPRPRPRPAMLPRP, the “shrunken log2 fold change” value stood at 0.226.

With RRIRLRPPRLPRPRPRPRCPPRP, the “shrunken log2 fold change” value was determined as 0.188.

In the case of RRIRDRPPRLPRPRPRPLNRPRP, the “shrunken log2 fold change” value was -0.0679.

Take RRIRYRPPRLPRPRPRPFVSPRP: the “shrunken log2 fold change” value was found to be 0.00884.

RRIRLRPPRLPRPRPRPFDYPRP: the “shrunken log2 fold change” value is -0.974.

In the case of RRIRNRPPRLPRPRPRPWDQPRP, the “shrunken log2 fold change” value is 0.0603.

Consider RRIRLRPPRLPRPRPRPESDPRP, for which the “shrunken log2 fold change” value was -0.0845.

With RRIRWRPPRLPRPRPRPGLNPRP, the “shrunken log2 fold change” value was determined as 0.0915.

As for RRIRRRPPRLPRPRPRPEDAPRP, the “shrunken log2 fold change” value came to 0.582.

Take RRIRDRPPRLPRPRPRPKAPPRP: the “shrunken log2 fold change” value is 0.341.

On to RRIRFRPPRLPRPRPRPMWTPRP, for which the “shrunken log2 fold change” value is -0.37.

Take RRIRKRPPRLPRPRPRPTLVPRP: the “shrunken log2 fold change” value turned out to be 0.528.

For the sequence RRIRLRPPRLPRPRPRPSSIPRP, the “shrunken log2 fold change” value was -0.245.

Take RRIRNRPPRLPRPRPRPYPVPRP: the “shrunken log2 fold change” value was found to be 0.00968.

As for RRIRARPPRLPRPRPRPDDWPRP, the “shrunken log2 fold change” value came to 1.12.

On to RRIRPRPPRLPRPRPRPMWNPRP, for which the “shrunken log2 fold change” value was -0.216.

In the case of RRIRCRPPRLPRPRPRPFWTPRP, the “shrunken log2 fold change” value was -0.317.

As to RRIRARPPRLPRPRPRPYWIPRP, the “shrunken log2 fold change” value was -0.556.

On to RRIRWRPPRLPRPRPRPVAKPRP, for which the “shrunken log2 fold change” value came out at 0.404.

In the case of RRIRYRPPRLPRPRPRPFGHPRP, the “shrunken log2 fold change” value was -0.15.

Take RRIRMRPPRLPRPRPRPGLFPRP: the “shrunken log2 fold change” value was found to be 0.236.

Take RRIRKRPPRLPRPRPRPGNVPRP: the “shrunken log2 fold change” value amounted to 0.00843.
